Measured values: patent US20220332795A1 (ARO BIOTHERAPEUTICS, published 2022)
Numbering of substitutions follows the chain as printed.

B1: SEQ ID NO 107 (designed binder)
chain: MSLPAPKNLVVSRVTEDSARLSWTAPDAAFDSFYIAYAEPRPDGEAISLYVPGSERSYDLTGLKPGTEYSVLIHGVKGGLLSSPLSAISTT
notes: FN3 domain
B2: SEQ ID NO 174 (designed binder)
chain: MLPAPKNLVVSRVTEDSARLSWTAPDAAFDSFFIGYLEPQPPGEAIQLWVPGSERSYDLTGLKPGTEYNVTIQGVKGGFPSMPLSAIFTT
notes: FN3 domain
B3: SEQ ID NO 123 (designed binder)
chain: B2 chain with M82H, S85G, I87V
notes: FN3 domain
B4: SEQ ID NO 110 (designed binder)
chain: B2 chain with Q47Y, W49T, M82Y, S85D, I87S
notes: FN3 domain
B5: SEQ ID NO 108 (designed binder)
chain: B2 chain with W49R
notes: FN3 domain
B6: SEQ ID NO 121 (designed binder)
chain: B2 chain with Q47A
notes: FN3 domain
B7: SEQ ID NO 126 (designed binder)
chain: B2 chain with Q47H, W49H, M82I, S85H, I87N
notes: FN3 domain
B8: SEQ ID NO 114 (designed binder)
chain: B2 chain with A24T, Q47S, W49Q, M82S, S85F, I87V
notes: FN3 domain
B9: SEQ ID NO 175 (designed binder)
chain: MLPAPKNLVVSRVTEDSARLSWTAPDAAFDSFRISYCETFYHGEAIVLTVPGSERSYDLTGLKPGTEYSVLIHGVKGGLLSSPLIAKFTT
notes: FN3 domain
B10: SEQ ID NO 189 (designed binder)
chain: MLPAPKNLVVSRVTEDSARLSWTAPDAAFDSFYIAYAEPRPDGEAIQLTVPGSERSYDLTGPKPGTEYWVLIQGVKGGGSSVPLVAYFTT
notes: FN3 domain
B11: SEQ ID NO 179 (designed binder)
chain: B9 chain with R33P, S35A, C37A, T39P, F40R, Y41P, H42D, I85S, K87F
notes: FN3 domain
B12: SEQ ID NO 195 (designed binder)
chain: MLPAPKNLVVSRVTEDSARLSWTAPDAAFDSFYIAYAEPRPDGEAIILDVPGSERSYDLTGLKPGTEYSVLIHGVKGGLLSSPLSSIFTT
notes: FN3 domain
B13: SEQ ID NO 196 (designed binder)
chain: B12 chain with I47V, D49W, S85R, S86A, I87S
notes: FN3 domain
B14: SEQ ID NO 180 (designed binder)
chain: B12 chain with I47A, D49L, S85V, S86A, I87Q
notes: FN3 domain
B15: SEQ ID NO 200 (designed binder)
chain: B12 chain with I47W, D49E, S85V, S86A, I87D
notes: FN3 domain
B16: SEQ ID NO 185 (designed binder)
chain: B12 chain with I47Y, D49G, S85R, S86A, I87K
notes: FN3 domain
B17: SEQ ID NO 199 (designed binder)
chain: B12 chain with I47H, D49W, S85H, S86A, I87D
notes: FN3 domain
B18: SEQ ID NO 193 (designed binder)
chain: B12 chain with I47S, D49S, S85I, S86A, I87N
notes: FN3 domain
B19: SEQ ID NO 190 (designed binder)
chain: B12 chain with I47S, S85E, S86A, I87S
notes: FN3 domain
B20: SEQ ID NO 198 (designed binder)
chain: B12 chain with D49E, S85V, S86A, I87Y
notes: FN3 domain
B21: SEQ ID NO 182 (designed binder)
chain: B12 chain with I47D, D49H, S85H, S86A, I87L
notes: FN3 domain
B22: SEQ ID NO 183 (designed binder)
chain: B12 chain with I47L, L79F, L80P, S82M, S86A
notes: FN3 domain
B23: SEQ ID NO 194 (designed binder)
chain: B12 chain with I47A, D49L, S86A, F88V
notes: FN3 domain
B24: SEQ ID NO 186 (designed binder)
chain: B12 chain with I47Q, D49G, S86A
notes: FN3 domain
B25: SEQ ID NO 201 (designed binder)
chain: B12 chain with I47S, D49W, S85L, S86A, I87H
notes: FN3 domain
B26: SEQ ID NO 188 (designed binder)
chain: B12 chain with I47G, D49G, S85D, S86A, I87S
notes: FN3 domain
B27: SEQ ID NO 197 (designed binder)
chain: B12 chain with I47K, S85V, S86A, I87F
notes: FN3 domain
B28: SEQ ID NO 178 (designed binder)
chain: B12 chain with I47Q, D49Q, S86A, F88V
notes: FN3 domain

biological target: T1, recombinant biotinylated human CD71 extracellular domain (human, UniProt P02786 89-760, biotinylated); experiment: solution ELISA, signal ratio to HSA
T1 construct: extracellular domain; also called hCD71; huCD71 ECD
T1 sequence (P02786 other isoform, or with tags, fused parts or gaps): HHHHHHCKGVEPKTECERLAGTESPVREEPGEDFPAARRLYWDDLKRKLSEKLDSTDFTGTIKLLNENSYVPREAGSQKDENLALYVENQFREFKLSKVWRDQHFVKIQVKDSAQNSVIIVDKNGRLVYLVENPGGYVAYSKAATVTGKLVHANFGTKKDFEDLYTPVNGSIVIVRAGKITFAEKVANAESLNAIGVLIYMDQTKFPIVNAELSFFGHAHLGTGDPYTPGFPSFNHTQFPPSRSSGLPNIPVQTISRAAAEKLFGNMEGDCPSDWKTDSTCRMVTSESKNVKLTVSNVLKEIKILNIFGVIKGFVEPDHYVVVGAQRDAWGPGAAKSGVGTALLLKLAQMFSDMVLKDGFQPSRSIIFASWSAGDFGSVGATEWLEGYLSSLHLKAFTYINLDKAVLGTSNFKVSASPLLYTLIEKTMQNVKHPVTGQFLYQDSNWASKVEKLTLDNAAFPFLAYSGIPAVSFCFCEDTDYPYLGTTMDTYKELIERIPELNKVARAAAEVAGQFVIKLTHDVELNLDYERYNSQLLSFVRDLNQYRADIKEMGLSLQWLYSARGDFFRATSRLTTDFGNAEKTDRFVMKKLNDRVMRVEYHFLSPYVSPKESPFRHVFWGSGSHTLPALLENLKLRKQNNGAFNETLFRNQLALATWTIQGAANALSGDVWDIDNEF

Row | Binder | hCD71:HSA
1 | B1 | 21.8
2 | B2 | 61.7
3 | B3 | 42.7
4 | B4 | 60
5 | B5 | 69.6
6 | B6 | 269
7 | B7 | 85
8 | B8 | 121
9 | B9 | 313
10 | B10 | 21.5
11 | B11 | 127
12 | B12 | 103
13 | B13 | 84.6
14 | B14 | 61.6
15 | B15 | 51.6
16 | B16 | 44
17 | B17 | 24.3
18 | B18 | 61.2
19 | B19 | 16.4
20 | B20 | 186
21 | B21 | 14.5
22 | B22 | 50.3
23 | B23 | 39
24 | B24 | 50.6
25 | B25 | 14
26 | B26 | 13.3
27 | B27 | 29.6
28 | B28 | 45

biological target: T2, CD71 apical domain (UniProt P02786 189-383, limits assumed); experiment: solution ELISA, signal ratio to HSA
T2 construct: domain: Apical domain
T2 sequence (P02786 189-383 limits assumed): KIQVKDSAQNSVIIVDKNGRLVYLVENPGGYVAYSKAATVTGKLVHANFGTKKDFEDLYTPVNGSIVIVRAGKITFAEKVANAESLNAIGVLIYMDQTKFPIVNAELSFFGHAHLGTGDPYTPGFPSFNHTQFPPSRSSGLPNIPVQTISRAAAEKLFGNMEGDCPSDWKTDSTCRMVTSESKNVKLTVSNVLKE

Row | Binder | apical domain:HSA
29 | B1 | 95.8
30 | B2 | 157
31 | B3 | 163
32 | B4 | 75.8
33 | B5 | 182
34 | B6 | 348
35 | B7 | 137
36 | B8 | 289
37 | B9 | 519
38 | B10 | 0.8
39 | B11 | 252
40 | B12 | 177
41 | B13 | 235
42 | B14 | 366
43 | B15 | 339
44 | B16 | 369
45 | B17 | 324
46 | B18 | 219
47 | B19 | 208
48 | B20 | 342
49 | B21 | 209
50 | B22 | 310
51 | B23 | 273
52 | B24 | 322
53 | B25 | 32.2
54 | B26 | 195
55 | B27 | 144
56 | B28 | 257

biological target: T1, recombinant biotinylated human CD71 …; experiment: solution ELISA

Row | Binder | hCD71, RLU
57 | B1 | 1.36e+06 RLU
58 | B2 | 1.9e+06 RLU
59 | B3 | 1.25e+06 RLU
60 | B4 | 636000 RLU
61 | B5 | 932000 RLU
62 | B6 | 4.77e+06 RLU
63 | B7 | 2.74e+06 RLU
64 | B8 | 2.6e+06 RLU
65 | B9 | 4.32e+06 RLU
66 | B10 | 2.57e+06 RLU
67 | B11 | 3.68e+06 RLU
68 | B12 | 4.27e+06 RLU
69 | B13 | 2.13e+06 RLU
70 | B14 | 653000 RLU
71 | B15 | 930000 RLU
72 | B16 | 652000 RLU
73 | B17 | 416000 RLU
74 | B18 | 1.71e+06 RLU
75 | B19 | 385000 RLU
76 | B20 | 3.91e+06 RLU
77 | B21 | 197000 RLU
78 | B22 | 1.13e+06 RLU
79 | B23 | 682000 RLU
80 | B24 | 844000 RLU
81 | B25 | 3.25e+06 RLU
82 | B26 | 358000 RLU
83 | B27 | 1.4e+06 RLU
84 | B28 | 865000 RLU

biological target: T2, CD71 apical domain; experiment: solution ELISA

Row | Binder | Apical domain, RLU
85 | B1 | 5.99e+06 RLU
86 | B2 | 4.83e+06 RLU
87 | B3 | 4.78e+06 RLU
88 | B4 | 803000 RLU
89 | B5 | 2.44e+06 RLU
90 | B6 | 6.18e+06 RLU
91 | B7 | 4.42e+06 RLU
92 | B8 | 6.22e+06 RLU
93 | B9 | 7.16e+06 RLU
94 | B10 | 98900 RLU
95 | B11 | 7.29e+06 RLU
96 | B12 | 7.35e+06 RLU
97 | B13 | 5.93e+06 RLU
98 | B14 | 3.88e+06 RLU
99 | B15 | 6.1e+06 RLU
100 | B16 | 5.46e+06 RLU
101 | B17 | 5.56e+06 RLU
102 | B18 | 6.12e+06 RLU
103 | B19 | 4.89e+06 RLU
104 | B20 | 7.2e+06 RLU
105 | B21 | 2.84e+06 RLU
106 | B22 | 6.95e+06 RLU
107 | B23 | 4.78e+06 RLU
108 | B24 | 5.38e+06 RLU
109 | B25 | 7.5e+06 RLU
110 | B26 | 5.24e+06 RLU
111 | B27 | 6.78e+06 RLU
112 | B28 | 4.95e+06 RLU
